Where a chain is given by its changes, count along the chain named. Names and notes keep the numbering of the source.
B1: 12G7 (antibody, V domains shown)
VH: QVQLQQWGAGLLKPSETLSLTCAVYGGSFSGYYWSWIRQPPGKGLEWIGEINHSGSTYYNPSLKSRVTMSVDTSKNQFSLKLSSVTAADTAVYYCAKRWELGAFDIWGQGTMVTVSS
VL: DIQMTQSPSSLSASVGDRVTITCRASQGISNYLAWYQQKPGKVPKLLIYAASTLQSGVPSRFSGSGSGTDFTLTISSLQPEDVATYYCQKYNSAPRTFGQGTKLEIK
notes: Recombinant antibody from H2L2 mice (human variable regions), made in CHO cells, purified on Protein A and detected with anti-human IgG; also called 12G7_19A2; anti-LY6H antibody (12G7)
B2: 23F3 (antibody, V domains shown)
VH: QVQLQESGPGLVKPSGTLSLTCAVSGGSISSSNWWSWVRQPPGKGLEWIGEIYHSGSTNYNPSLKSRVTISVDKSKNQFSLKLSSVTAADTAVYYCARVDILTGGNFDYWGQGTLVTVSS
VL: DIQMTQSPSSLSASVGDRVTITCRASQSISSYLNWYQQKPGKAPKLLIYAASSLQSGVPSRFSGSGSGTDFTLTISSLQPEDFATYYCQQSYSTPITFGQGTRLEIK
notes: also called 23F3_19B2
B3: 11D9 (antibody, V domains shown)
VH: QVQLQESGPGLVKPSGTLSLTCTVSGGSISSSSWWSWVRLPPGKGLEWIGEIYHSGSTNYNPSLKSRVTISVDKSKNQFSLKLSSVTAADTAVYYCGGVRGVVMAFDIWGQGTMVTVSS
VL: not shown
notes: also called 11D9_19D5
B4: 34H6 (antibody, V domains shown)
VH: QVQLVESGGGVVQPGRSLRLSCAASGFTFSSYGMHWVRQAPGKGLEWVAVIWYDGSNKYYADSVKGRFTISRDNSKNTLYLQMNSLRAEDTAVYYCARSIVVVTGFGDYWGQGTLVTVSS
VL: not shown
notes: also called 34H6_20A1
B5: 6D11 (antibody, V domains shown)
VH: QVQLQQWGAGLFKPSETLSLTCAVYGGSFSGSLWSWIRQPPGKGLEWIGEINHSGSTNYTPSLKSRVTISVDTSKNQFSLKLTSVTAADTAVYYCARGRHIVVVTAIHSPFDYWGQGTLVTVSS
VL: B1 VL with Y49F
notes: Recombinant antibody made in CHO cells; also called 6D11_25D6
B6: 10B10 (antibody, V domains shown)
VH: QVQLQQWGAGLLKPSETLSLTCAVYGGSFSGYYWHWIRQPPGKGLEWIGEINHSESTKYNPSLKSRVTISVDTSKNQFSLKLSSVTGADTAVYYCARGQHIVVVTDSLGDYWGQGTLVTVSS
VL: B1 VL
notes: also called 10B10_25A1
B7: 2B11 (antibody, V domains shown)
VH: B4 VH with S31N, A88T, G105A, F106T, G107L
VL: not shown
notes: also called 2B11_25D1
B8: 1F8 (antibody, V domains shown)
VH: B4 VH with S31N, N57Y, A88T, G105A, F106T, G107L
VL: not shown
notes: also called 1F8_25B6; IF8
B9: 12G7-S54A (antibody, V domains shown)
VH: B1 VH with S54A
VL: B1 VL
B10: 10B10-S54A (antibody, V domains shown)
VH: B6 VH with S54A
VL: B1 VL
B11: 6D11-41B4 (antibody, V domains shown)
VH: B5 VH with S54A, N58Q
VL: B1 VL with Y49F
B12: 22A5_19A5 (antibody, V domains shown)
VH: QVQLVESGGGVVQPGRSLRLSCAASGFTFSSYGMHWVRQAPGKGLEWVAVIWYDGSNKYYADSVKGRFTISRDNSKNTLYLQMNSLRAEDTAVYYCARDLWFGESRGGMDVWGQGTTVTVSS
VL: not shown
notes: human anti-LY6H antibody

Each binder was assayed against T1, Macaca fascicularis LY6H expressed on 293T cells (plasmid BBP 492/598, M1-P140 plus Myc-DDK) (Macaca fascicularis, UniProt Q4R5M8 26-115) (assay: on-cell affinity by flow cytometry: unconjugated 12G7 (0.05-100 nM) competes with 1 nM PE-conjugated 12G7 on 293T cells expressing Macaca fascicularis LY6H (per legend paragraph 131); table row 293T-mmLY6H).
T1 construct: Full construct as encoded; also called monkey LY6H; not shown: Myc-DDK tag at the C-terminus
T1 sequence: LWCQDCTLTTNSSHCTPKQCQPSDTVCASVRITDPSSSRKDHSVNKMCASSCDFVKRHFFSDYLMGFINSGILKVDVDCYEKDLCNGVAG
Experimental: (§1) Serial diluted antibodies were incubated with 293 cells expressing either human or Macaca fascicularis on ice for 4 hours, after a brief wash. Acquisition of the MFI (Median Fluorescent Intensity) was performed on a MACSQuant® Flow Cytometers (Miltenyi Biotec). On cell affinity (Kd) was calculated using dose-response EC50 shift by global fitting from GraphPad Prism™.
as §1, with “live” for “293”, “cells” for “cells expressing either human or Macaca fascicularis”, “Dose-response EC₅₀” for “dose-response EC50”
B1 gave a Kd of 14.5 nM.

The binders below were run against T2, human LY6H, endogenous on cancer cell lines (H446, DMS79, H526, MOLT3, KE-37) (human, UniProt O94772 26-115) (assay: flow cytometry, antibody titrated 0.1-100 nM on DMS79 cells, MFI; upper panel and table, column DMS79_EC50 (nM)).
T2 construct: Endogenous protein on human SCLC and T-ALL cell lines
T2 sequence (looked up): T1 sequence with Y80C, V88A
Experimental: (§2) The assay uses 3-5 fold dilutions (from 100 nM to 0.1 nM) of antibody of a stock antibody concentration (100 nM) in binding buffer. Serial diluted antibodies were incubated with live cells on ice for 30 minutes, after a brief wash, cells were incubated with Alexa Fluro® 488-conjugated anti-human IgG secondary antibody @1:100, or 15 μg/ml (709-546-149, Jackson ImmunoResearch). Acquisition of the MFI (Median Fluorescent Intensity) was performed on a MACSQuant® Flow Cytometers (Miltenyi Biotec). EC₅₀ was calculated using Dose-response EC₅₀ shift by global fitting from GraphPad Prism.
(§3) An estimate of affinity is interpreted from one-half the concentration at which antibody binding first achieves saturation.
For B2, the EC50 was 17.8 nM.
B1 was tested, and the EC50 was 2.4 nM.
With B3 the EC50 was 2.2 nM.
B4 was tested, and the EC50 was 0.9 nM.

Each binder was assayed against T2, human LY6H, endogenous on cancer cell … (assay: flow cytometry, antibody titrated 0.1-100 nM on H526 cells, MFI; column H526_EC50 (nM); curve has no plateau at 100 nM).
Experimental: as §2, §3
B2 gave an EC50 of 73.5 nM.
Binder B3 has an EC50 of 13.2 nM.

Each binder was assayed against T2, human LY6H, endogenous on cancer cell … (assay: flow cytometry, antibody titrated 0.1-100 nM on MOLT3 cells, MFI; lower panel and table, column MOLT3_EC50 (nM)).
Experimental: as §2, §3
B5 showed an EC50 of 0.6 nM.
With B6 the EC50 was 0.7 nM.
For B1, the EC50 was 0.8 nM.
In the case of B7, the EC50 is reported as 3.9 nM.
With B8 the EC50 was 2.7 nM.

The binders below were run against T2, human LY6H, endogenous on cancer cell … (assay: flow cytometry, antibody titrated 0.1-100 nM on MOLT3 cells, MFI; upper panel and table, column MOLT3_EC50 (nM)).
Experimental: as §2, §3
B2 gave an EC50 of 5.4 nM.
For B1, the EC50 was 0.7 nM.
Binder B3 has an EC50 of 1.4 nM.
For B4, the EC50 was 0.7 nM.

What follows are binders tested against T1, Macaca fascicularis LY6H expressed on … (assay: flow cytometry on 293 cells expressing Macaca fascicularis LY6H (293-neo-cyno LY6H); antibody 1 ug/ml per paragraph 484; solid histogram = hIgG1 control [cont.]).
Experimental: Staining for flow cytometry was performed in 1× cold PBS with 0.5% BSA.
B5: binds.

These binders were tested against T1, Macaca fascicularis LY6H expressed on … (assay: on-cell affinity by flow cytometry: unconjugated 1F8 (0.05-100 nM) competes with 1 nM PE-conjugated 1F8 on 293T cells expressing Macaca fascicularis LY6H (per legend paragraph 131); table row 293T-mmLY6H).
Experimental: as §1
as §1, with “live” for “293”, “cells” for “cells expressing either human or Macaca fascicularis”, “Dose-response EC₅₀” for “dose-response EC50”
For B8, the Kd was 21 nM.

Each binder was assayed against T2, human LY6H, endogenous on cancer cell … (assay: flow cytometry, antibody titrated 0.1-100 nM on H526 cells, MFI; column H526_EC50 (nM)).
Experimental: as §2, §3
B1 gave an EC50 of 1.9 nM.
For B4, the EC50 was 2.9 nM.

What follows are binders tested against T3, recombinant human LY6H-ECD (C-terminal histidine tag) (human, UniProt O94772 26-115) (assay: Octet Red BLI, antibody on Protein A biosensor, recombinant human LY6H in solution).
T3 construct: The ectodomain was cloned by PCR with a non-native signal peptide and a C-terminal histidine tag; also called recombinant LY6H; hLY6H-ECD; not shown: C-terminal histidine tag
T3 sequence (looked up): T1 sequence with Y80C, V88A
Experimental: (§4) Affinity: The affinity of antibodies to various recombinant LY6H protein was determined on an Octet Red™ instrument. After loading reagents into a 96-well plate, the Octet Red with Protein A-conjugated biosensors was programmed as follows: 30 seconds for baseline #1; 120 seconds to immobilize the antibody; 30 seconds for baseline #2; 300 seconds for association of antibody to recombinant LY6H; and 300-600 seconds for dissociation of recombinant LY6H from the antibody.
With B5 the Kd was 22 nM.
In the case of B6, the Kd is reported as 47 nM.
Work on B1 yielded a Kd of 4 nM.
With B9 the Kd was 4 nM.
For B10, the Kd was 42 nM.
Binder B11 has a Kd of 25 nM.
For B3, the Kd was 31 nM.
Work on B8 yielded a Kd of 33 nM.

What follows are binders tested against T3, recombinant human LY6H-ECD (C-terminal …) (assay: Octet (bio-layer interferometry), table row Octet; antigen not named on the sheet, recombinant human LY6H per paragraph 455 and Table 8 (Table 8 prints 33 for 1F8)).
Experimental: as §4
With B8 the Kd was 31 nM.

The binders below were run against T2, human LY6H, endogenous on cancer cell … (assay: flow cytometry, antibody titrated 0.1-100 nM on H446 cells, MFI; column H446_EC50 (nM)).
Experimental: as §2, §3
Work on B2 yielded an EC50 of 2.3 nM.
Binder B1 has an EC50 of 3 nM.
For B3, the EC50 was 2.6 nM.
In the case of B4, the EC50 is reported as 2.4 nM.

Each binder was assayed against T2, human LY6H, endogenous on cancer cell … (assay: flow cytometry, antibody titrated 0.1-100 nM on DMS79 cells, MFI; lower panel and table, column DMS79_EC50 (nM)).
Experimental: as §2, §3
Work on B5 yielded an EC50 of 1.3 nM.
With B6 the EC50 was 2 nM.
B1 showed an EC50 of 1.9 nM.
Work on B7 yielded an EC50 of 3.4 nM.
B8 was tested, and the EC50 was 3.3 nM.

These binders were tested against T2, human LY6H, endogenous on cancer cell … (assay: flow cytometry, antibody titrated 0.1-100 nM on H526 cells, MFI; column H526_EC50 (nM); value lies above the highest concentration tested, curve has no plateau).
Experimental: as §2, §3
With B12 the EC50 was 122 nM.

— patent US20250319180A1 (BLUEFIN BIOMEDICINE, published 2025)
